Assay results reported in US20230272051A1 (CENTIVAX, published 2023).
Positions count from the first letter of the chain named.

B1: COVID19_P13_G12 (scFv, V domains shown)
VH: QVQLVQSGAEVKKPGSSVKVSCKASGYTFINYEIHWVRQAPGQGLEWMGGITPIFGTANYAQKFQGRVTITADESTSTAYMELSSLRSEDTAVYYCARDTVMGGMDVWGQGTLVTVSS
VL: SSYVLTQPPSVSVAPGKTARITCGGNNIGSKSVHWYQQKPGQAPVLVIYYDSDRPSGIPERFSGSNSGNTATLTISRVEAGDEADYYCQVWDSSSDYVFGGGTKLTVLA
B2: COVID19_P01_H10 (scFv, V domains shown)
VH: QVQLVQSGAEVKKPGSSVKVSCKASGGTFGNYPITWVRQAPGQGLEWMGIIYPGDSDARYRPSFQGRVTITADESTSTAYMELSSLRSEDTAVYYCARDFSMGGMDVWGQGTLVTVSS
VL: B1 VL with S93D
notes: also called COVID19_PO1_H10
B3: COVID19_P01_B08 (scFv, V domains shown)
VH: QVQLVQSGAEVKKPGSSVKVSCKASGGTFSNFAITWVRQAPGQGLEWMGVINPGGGSTTYAQTFQGRVTITADESTSTAYMELSSLRSEDTAVYYCARDTVMGGMDVWGQGTLVTVSS
VL: B1 VL
B4: COVID19_P13_B05 (scFv, V domains shown)
VH: QVQLVQSGAEVKKPGSSVKVSCKASGYTFTSYDINWVRQAPGQGLEWMGWINPNSGGTNYAQKFQGRVTITADESTSTAYMELSSLRSEDTAVYYCARDTFFGGMDVWGQGTLVTVSS
VL: B1 VL with D96Y
B5: COVID19_P14_B07 (scFv, V domains shown)
VH: B4 VH with D33G, N35S, R98V, D99E, F101V, F102M, M105F, D106T
VL: B1 VL
B6: COVID19_P13_D11 (scFv, V domains shown)
VH: B1 VH with T28S, I30N, N31A, Y32F, E33Y, T52I, R98L, D99E
VL: B1 VL with S93G
B7: COVID19_P01_C09 (scFv, V domains shown)
VH: B1 VH with I30T, N31S, Y32F, E33D, T52I, R98Y, D99E
VL: B1 VL with D96Y
B8: COVID19_P01_H04 (scFv, V domains shown)
VH: B1 VH with T28P, I30S, N31S, H35N, R98D, D99E
VL: B1 VL with S95N
B9: COVID19_P14_F08 (scFv, V domains shown)
VH: B1 VH with I30T, N31A, Y32F, E33Y, T52I, F55S, V68A, D99E, T100V
VL: B1 VL with S94T
B10: COVID19_P13_H02 (scFv, V domains shown)
VH: B1 VH with I30T, N31G, Y32F, E33Y, I34M, H35Q, F55L, D99E, T100I
VL: B1 VL with V90S
B11: COVID19_P13_D01 (scFv, V domains shown)
VH: B1 VH with I30S, N31D, Y32F, E33D, H35N, T52I, A97G, R98M, D106T, V107S
VL: B1 VL with S95H
B12: COVID19_P14_G01 (scFv, V domains shown)
VH: B1 VH with T28N, E33Y, I34L, T57I, D99E
VL: B1 VL with N27K, S94G
B13: COVID19_P01_B06 (scFv, V domains shown)
VH: QVQLVQSGAEVKKPGSSVKVSCKASGYTFSAYYMHWVRQAPGQGLEWMGGITPLFGTPSYAQKFQGRVTITADESTSTAYMELSSLRSEDTAVYYCALETVMGGVGVWGQGTLVTVSS
VL: B1 VL with G81V
B14: COVID19_P02_C07 (scFv, V domains shown)
VH: B1 VH with I30S, N31S, E33Y, T52I, T57E, N59E, Q62H, R98M, D99E
VL: B1 VL
B15: COVID19_P14_B08 (scFv, V domains shown)
VH: B13 VH with S30T, A31S, M34V, T52L, L54I, F55L, S59H, V105M, G106T, V107A
VL: B1 VL
B16: COVID19_P02_D10 (scFv, V domains shown)
VH: B1 VH with T28M, I30T, N31E, Y32F, E33Y, I34M, T52I, I54V, F55S, D99E
VL: B1 VL
B17: COVID19_P14_E01 (scFv, V domains shown)
VH: B1 VH with I30T, N31S, E33Y, I34M, R98V, D99E, D106Q, V107M
VL: B1 VL
B18: COVID19_P14_D07 (scFv, V domains shown)
VH: B1 VH with I30S, N31S, Y32F, E33Y, T52I, T57E, N59E, Q62H, R98M, D99E
VL: B1 VL
B19: COVID19_P14_E07 (scFv, V domains shown)
VH: B1 VH with E33D, H35N
VL: B1 VL with S94H
B20: COVID19_P01_G05 (scFv, V domains shown)
VH: B1 VH with I30T, N31D, Y32F, E33Y, T52I, R98L, D99E
VL: B1 VL with D96H
B21: COVID19_P13_B12 (scFv, V domains shown)
VH: B1 VH with I30T, N31D, Y32F, E33H, I34M, T52I, R98L, D99E
VL: B1 VL
B22: COVID19_P13_A08 (scFv, V domains shown)
VH: B1 VH with E33D, H35N
VL: B1 VL with S94R
B23: COVID19_P14_C01 (scFv, V domains shown)
VH: B1 VH with I30S, N31D, Y32F, E33Y, I34L, R98M, D99E
VL: B1 VL
B24: COVID19_P13_C07 (scFv, V domains shown)
VH: B3 VH with N31R, F32Y, A33D, T35N, V50I, G54S, T63K, R98H
VL: B1 VL with D96Y
B25: COVID19_P01_E12 (scFv, V domains shown)
VH: B4 VH with S31T, F101Y, F102W
VL: B1 VL with Y50D, D96F
B26: COVID19_P14_D11 (scFv, V domains shown)
VH: QVQLVQSGAEVKKPGSSVKVSCKASGYTFNRFAMTWVRQAPGQGLEWMGTINPSGGSTIYTQRFQGRVTITADESTSTAYMELSSLRSEDTAVYYCGHDTVMGGMGEWGQGTLVTVSS
VL: B1 VL with V90S, W91T
B27: COVID19_P01_E06 (scFv, V domains shown)
VH: QVQLVQSGAEVKKPGSSVKVSCKASGCTFTRFTMHWVRQAPGQGLEWMGGITPIFGITNYAQKFQGRVTITADESTSTAYMELSSLRSEDTAVYYCAHDTVMGGMEEWGQGTLVTVSS
VL: B1 VL with S95N
B28: COVID19_P02_H04 (scFv, V domains shown)
VH: B1 VH with I30S, N31S, Y32F, E33H, H35N, T57I, R98L, D99E
VL: B1 VL with V90S, S95G
B29: COVID19_P14_C12 (scFv, V domains shown)
VH: B4 VH with S31T, W50I, N52D, N54I, S55G, G57T, F101V, F102G, G103F
VL: B1 VL with Y50D, D96L

Target: T1, SARS-CoV-2 Receptor Binding Domain (RBD) protein (SARS-CoV-2, UniProt P0DTC2 319-541)
T1 construct: also called Sars-Cov-2 (COV2)
Test: SPR (Carterra LSA)

Binder | Kd [nM]
B1 | < 50
B2 | < 50
B3 | < 50
B4 | < 50
B5 | < 50
B6 | < 50
B7 | < 50
B8 | < 50
B9 | < 50
B10 | < 50
B11 | < 50
B12 | < 50
B13 | < 50
B14 | < 50
B15 | < 50
B16 | < 50
B17 | < 50
B18 | < 50
B19 | < 50
B20 | < 50
B21 | < 50
B22 | < 50
B23 | < 50

Target: T1, SARS-CoV-2 Receptor Binding Domain …
Test: SPR (Carterra LSA); scFv captured by anti-V5, RBD as analyte

Binder | Kd [nM] | koff [s⁻¹] | kon [M⁻¹ s⁻¹]
B1 | 6.48 | 0.00088 | 140000
B2 | 39.3 | 0.0148 | 377000
B24 | 41.5 | 0.0095 | 230000
B25 | 32.5 | 0.0108 | 331000
B3 | 33.8 | 0.0149 | 442000
B4 | 21.9 | 0.0037 | 170000
B5 | 34.2 | 0.0131 | 383000
B26 | 48.2 | 0.00987 | 205000
B6 | 35 | 0.011 | 310000
B7 | 18.2 | 0.0097 | 532000
B8 | 0.95 | 0.00056 | 590000
B27 | 48.7 | 0.0118 | 242000
B9 | 25 | 0.00283 | 113000
B10 | 40.6 | 0.0084 | 210000
B11 | 3.14 | 0.00035 | 110000
B12 | 8.45 | 0.000842 | 99700
B13 | 28 | 0.0122 | 437000
B14 | 4.34 | 0.00279 | 642000
B28 | 31.9 | 0.00781 | 245000
B15 | 30.8 | 0.0115 | 374000
B16 | 26.4 | 0.0029 | 110000
B17 | 10.7 | 0.000819 | 76800
B18 | 6.08 | 0.00232 | 381000
B19 | 5.67 | 0.000778 | 137000
B20 | 2.89 | 0.00123 | 427000
B29 | 7.8 | 0.000725 | 93000
B21 | 32.7 | 0.0049 | 150000
B22 | 10 | 0.00046 | 46000
B23 | 12.1 | 0.00191 | 158000
